According to US20210198377A1 (XDCEXPLORER SHANGHAI, published 2021):

T1: human TPBG-hFc (human, UniProt Q13641 32-355)
T1 construct: also called immunogen A; hFc tagged TPBG protein; not shown: The human IgG Fc fragment of the pCpC vector (Invitrogen V044-50) and any linker to it
T1 sequence: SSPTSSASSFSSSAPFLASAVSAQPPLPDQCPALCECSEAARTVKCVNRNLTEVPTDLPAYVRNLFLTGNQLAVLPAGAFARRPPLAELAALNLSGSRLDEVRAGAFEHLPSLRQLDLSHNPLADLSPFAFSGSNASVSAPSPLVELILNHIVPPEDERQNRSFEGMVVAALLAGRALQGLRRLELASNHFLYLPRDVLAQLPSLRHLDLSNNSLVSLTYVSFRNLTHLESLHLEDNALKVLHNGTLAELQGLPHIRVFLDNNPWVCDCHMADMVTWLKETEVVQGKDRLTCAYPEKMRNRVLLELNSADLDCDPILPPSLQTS

T2: biotinylated recombinant TPBG protein (Homo sapiens (Human), UniProt Q13641 32-355, Biotinylated; the number and positions of the biotin labels are not stated and the letters do not carry them.)
T2 sequence: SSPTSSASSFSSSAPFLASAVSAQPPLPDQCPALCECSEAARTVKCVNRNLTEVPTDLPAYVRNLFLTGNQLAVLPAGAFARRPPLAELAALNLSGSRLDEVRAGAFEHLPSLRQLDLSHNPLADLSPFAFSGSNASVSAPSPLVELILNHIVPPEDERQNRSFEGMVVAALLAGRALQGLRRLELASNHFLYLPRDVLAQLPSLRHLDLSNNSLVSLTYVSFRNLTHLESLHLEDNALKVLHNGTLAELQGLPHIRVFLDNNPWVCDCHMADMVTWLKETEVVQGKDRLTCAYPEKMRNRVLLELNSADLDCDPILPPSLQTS


Key:
[1] = target: T1, human TPBG-hFc; experiment: ELISA, coated human TPBG-hFc 1.0 ug/mL; antibody 20 nM
Protocol: (§1) The purified immunogen A (as for its method of preparation please refer to step 1 in Example 1) diluting with PBS to a final concentration of 1.0 μg/mL was aliquoted into a 96-well ELISA plate at 100 μL per well, and sealed with a parafilm and incubated at 4° C. overnight. The plate was washed twice with plate washing buffer (PBS containing 0.01% (v/v) Tween 20), and blocked with blocking buffer (PBS containing 0.01% (v/v) Tween 20 and 1% (w/w) BSA) at room temperature for 2 h. The blocking buffer was discarded, and 100 μL per well of the purified antibody obtained from Embodiment 2 was added. After incubating at 37° C. for 2 h, the plate was washed for three times with plate washing buffer (PBS containing 0.01% (v/v) Tween 20). HRP (horseradish peroxidase)-labeled secondary antibody (purchased from Sigma) was added and incubated at 37° C. for 2 h, and the plate was washed for three times using plate washing buffer (PBS containing 0.01% (v/v) Tween 20). 100 μL of TMB substrate was aliquoted into each well, incubated at room temperature for 30 min, and 100 μL of stop buffer (1.0N HCl) per well was subsequently added. A₄₅₀ₙₘ values were read using the ELISA plate reader (SpectraMax 384plus purchased from Molecular Device), and the results were shown in FIG. 6 and table 6. […] In Table 6 the IgG control herein is a mice IgG control, the data in the Table are OD₄₅₀ₘₙ values, and Blank means the OD₄₅₀ₘₙ value when there is only PBS buffer in the plate.

[2] = target: T1, human TPBG-hFc; experiment: ELISA, coated human TPBG-hFc 1.0 ug/mL; antibody 0.2 nM
Protocol: as §1

[3] = target: T2, biotinylated recombinant TPBG protein; experiment: competitive ELISA; row antibody 5 ug/mL; competitor: coated 5G4H10G5
Protocol: The purified antibodies to be tested were diluted to 1 μg/mL using PBS, and coated with high-adsorption of 96-well microplates at […]. After overnight coating at 4[…], 250 μL of blocking buffer (PBS containing 0.01% (v/v) Tween20 and 1% (w/w) BSA) was added to block coating at room temperature for 1 h, and 0.05 μg/mL of biotinylated recombinant TPBG protein was added to each well. Meanwhile, 5 μg/mL final concentration of competitive antibodies, i.e. the purified antibodies obtained from Embodiment 2 with the clone number of 12B12C7C3, 5G4H10G5, 37H9C5G2, 39A11G5F2, 52C9E9F6, 28D4E6A9, 36A10D8B12, 99E12C7H1, 103E2E9C2 and 106D5G3D10 were added and incubated at 25-37° C. for 1-2 h. The plates were washed three times with plate-washing buffer (PBS containing 0.01% (v/v) Tween20) and HRP (horseradish peroxidase)-labeled streptavidin (purchased from Sigma) was added. After incubating at 37° C. for 0.5 h, the plates were washed three times with plate-washing buffer (PBS containing 0.01% (v/v) Tween20), and 100 μL of TMB substrate was added to each well and the plates were further incubated at room temperature for 30 min prior to adding 100 μL of stop buffer (1.0N HCl) to each well. A₄₅₀ₙₘ values were read using an ELISA microplate reader (SpectraMax 384plus purchased from Molecular Device) and results were shown in FIG. 6. The higher the values of the competition rate, the closer the antigen surface of the two antibodies are.

OD450nm [1] [OD450nm]	OD450nm [2] [OD450nm]	competition rate [3] [%]	Binder
2.5	1.36	19	39A11G5F2 (antibody, V domains shown, Mouse hybridoma antibody purified from culture supernatant; also called TPBG antibody; lead antibody) VH: QVQLQQSGAELMKPGASMRLSCKATGYTFTGYWLEWIKRRPGHGLEWIGEILPGRGSTNYNEKFKGKATFTAETSSNTAYMQLTSLTTEDSAIYYCARGGRDFDNWGQGTTLTVSS VL: DIQMTQSTSSLSASLGDRVTISCSASQGINNHLNWYQQKPDGTVKLLIYYTSSLHSGVPSRFSGSGSGTDYSLTISNLEPEDIAIYYCQQFSKLPYTFGGGTKVEMK
2.69	1.39	32	52C9E9F6 (antibody, V domains shown, Mouse hybridoma antibody purified from culture supernatant; also called TPBG antibody; lead antibody) VH: QVQLQQSGAELMKPGASVKLSCKATGYTFTGYWIEWIKQRPGHGLEWIGEILPGRGSTDYNEKFKGKATFTADTSSNTAYMQLSSLTTEDSAIYYCTRGRLDFTYWGQGTLVTVSA VL: DIQMTQTTSSLSASLGDRVTISCSASQGIRNYLNWYQQKPDGTVKLLIYYTSSLHSGVPSRFSGSGSGTDYSLTISNLEPEDIATYYCQQYSKVPWTFGGGTKLEIK
2.62	1.89	7	103E2E9C2 (antibody, V domains shown, Mouse hybridoma antibody purified from culture supernatant; also called TPBG antibody; lead antibody) VH: EVQLQQSGPVLVKPGASVKMSCEASGYSFIDYYMSWVKQSRGRSLEWIGVFNPYSGEIIYNQKFKGKATLTVDKSSSTAYMELSSLTSEDSGVYSCARLRISYYAIDYWGQGTSVAVSS VL: ENVLTQSPAIMSASPGEKVTMTCRATSSVSSGHFHWYQQKSGASPKVWIYSTSNLASGVPARFSGSGSGTSFSLTISSVEAEDVATYFCQQYSGYPLTFGGGTKLEIK
2.88	2.62	95	99E12C7H1 (antibody, V domains shown, Mouse hybridoma antibody purified from culture supernatant; also called TPBG antibody; lead antibody) VH: QIQLVQSGPELKKPGETVKISCKPSGYTFTAYGLSWVKQAPGQGFQWMGWINTYSGVPTYTDDFKGRFAFSLETSAGTASLQITNLKNEDTATYFCARSSIPPFEYWGPGTTLTVSS VL: SFVMTQSPKFLLVSVGDRVTITCKASQSVSNDVAWYQQKPGQPPRVLIYFASNRYTGVPDRFTGSGYGTDFTFTISTVQAEDLALYFCQQDYSSPWTFGGGTKLEIK
2.82	2.36	40	106D5G3D10 (antibody, V domains shown, Mouse hybridoma antibody purified from culture supernatant; also called TPBG antibody; lead antibody) VH: EVQLVESGGGLVKPGGSLKLSCAASGFTFSDYGMHWVRQAPEKGLEWVGYISSGTYVVYYADTVKGRFTISRDNAKNTLFLQMTSLRSEDTAIYYCSTYGSNPFDYWGQGTTLTVSS VL: QLVLTQSPAIMSASPGEKVTITCSATSSVSSMHWFQQKPVTSPKLWIYSTSNLASGVPTRFSGSGSGTSYSLTISRMEAEDAATYYCQQRSGYPPIFTFGSGTKLEIK

Continued, binder first:

Binder	OD450nm [1] [OD450nm]	OD450nm [2] [OD450nm]	competition rate [3] [%]
37H9C5G2 (antibody, V domains shown, Mouse hybridoma antibody purified from culture supernatant; also called TPBG antibody; lead antibody) VH: QVQLQQSDAELVRPGASVKMSCKVSGYTFTDHTIHWMKQRPEQGLEWIGYIYPRDGSGTYNEKFKGKATLTADKSSSTAYMQLNSLTSEDSAVYFCARDGSSHYWYFDVWGTGTTVTVSS VL: DIQMTQSPASLSASVGETVTITCRASEIIYNYLAWYQQKQGKSPQLLVYNAKTLAEGVPSRFSGSYSGTQFSLNINSLQSEDFGIYYCQHHHDTPLTFGAGTKLDLK	2.63	1.55	12
28D4E6A9 (antibody, V domains shown, Mouse hybridoma antibody purified from culture supernatant; also called TPBG antibody; lead antibody) VH: DVQLVESGGGLVRPGGSLKLSCAASGFTFSNYVMSWARQSPEKRLEWVAEISTGGSHTYYSDTVTGRFTISRDNAKKALYLEMSSLRSEDTAIYYCIMFYYGSSYSMDYWGQGTSVTVSS VL: DIQMTQSTSSLSASLGDRITISCRASQDIRNYLNWYQQKPDGTVKLLIYHTSRLHSGVPSRFSGSGSGTDYSLTISNLEQEDIATYFCQQGDTLPLTFGAGTRLELK	2.59	1.97	11
5G4H10G5 (antibody, V domains shown, Mouse hybridoma antibody purified from culture supernatant; also called TPBG antibody; lead antibody) VH: EVQLVESGGDLVQPGGSLKLFCAASGFTFSTYGLSWVRQTPDKRLELVATITNNDGSAYYPDSVKGRFTISRDKAKNTLFLQMTSLKSEDTAMYYCARETGFGSSYLFDYWGQGTLVTVSA VL: NIVMTQTPKFLLVSAGDRVTITCKASQSVSNDVAWYQQKPGQSPKLLIYFATNRYTGVPNRFTGSGYGTEFTFTISSVQAEDLAVYFCQQDYSSPTFGGGTKLEIK	2.8	1.76	97
12B12C7C3 (antibody, V domains shown, Mouse hybridoma antibody purified from culture supernatant; also called TPBG antibody; lead antibody) VH: DVQLVESGGGLVQPGGSRKLSCAASGFTFSNFGMHWVRQAPEKGLEWVAYISSGSTSFYYADTVKGRFTISRDNPKNTLFLQMTSLRSEDTAMYYCSRTNSLLRGFFDAWGAGTTVTVSS VL: DIVLTQSPASLAVSLGQRATISCRASQSVSSSSYTYLHWYQQKPGQPPKLLIKSASNLESGVPARFSGTGSGTDFTLNIHPVEEEDTATYYCQHSWEIPLTFGAGTKLELK	2.83	1.67	47
36A10D8B12 (antibody, V domains shown, Mouse hybridoma antibody purified from culture supernatant; also called TPBG antibody; lead antibody) VH: DVQLQESGPGMVKPSQSLSLTCTVTGYSITSGYDWHWIRHFPGNKLEWMGYISYSGNTNYNPSLKSRISITHNTSKNHFFLRLNSVTTEDTATYYCARGYGNWDAMDYWGQGTSVTVSS VL: DIVMTQSQKFMSTSVGDRVSVTCKASQIVDTNVAWYQQKPGQSPKALISSASYRYSGVPDRFTGSGSGTDFTLTISNVQSEDLAEYFCQQYNSYPLTFGAGTKLELT	3.07	2.15	17
